The results in this text go back to paper PMC4615653 (RNA Biology, 2015).

This data set concerns the molecule itself. The experiment in a line: zonal velocity sedimentation in a glycerol gradient.

B1: CshA-His6 (natural protein, S. aureus, UniProt Q2FWH5 1-506, looked up)
chain: MQNFKELGISDNTVQSLESMGFKEPTPIQKDSIPYALQGIDILGQAQTGTGKTGAFGIPLIEKVVGKQGVQSLILAPTRELAMQVAEQLREFSRGQGVQVVTVFGGMPIERQIKALKKGPQIVVGTPGRVIDHLNRRTLKTDGIHTLILDEADEMMNMGFIDDMRFIMDKIPAVQRQTMLFSATMPKAIQALVQQFMKSPKIIKTMNNEMSDPQIEEFYTIVKELEKFDTFTNFLDVHQPELAIVFGRTKRRVDELTSALISKGYKAEGLHGDITQAKRLEVLKKFKNDQINILVATDVAARGLDISGVSHVYNFDIPQDTESYTHRIGRTGRAGKEGIAVTFVNPIEMDYIRQIEDANGRKMSALRPPHRKEVLQAREDDIKEKVENWMSKESESRLKRISTELLNEYNDVDLVAALLQELVEANDEVEVQLTFEKPLSRKGRNGKPSGSRNRNSKRGNPKFDSKSKRSKGYSSKKKSTKKFDRKEKSSGGSRPMKGRTFADHQK
In general, stoichiometry N refers to the number of molecules, sites or subunits per partner or assembly. In the case of B1, the “stoichiometry N” value came out at 2.
